Assay results as given in paper PMC7335091, “Mechanistic insights into chromatin targeting by leukemic NUP98-PHF23 fusion” (Nature Communications, 2020).
Where two headings read alike, the source gives them in different places. One block for each molecule: values may come before it. Non-standard residues stand in square brackets, D forms with d. No end group written: not given here. Lys(Me3) = C[N+](C)(C)CCCC[C@H](N)C(=O)O

B2: PHD finger of PHF23 (aa 338-393), wild type (domain or fragment, human, UniProt Q9BUL5 338-393, looked up)
chain: DLITCYCRKPFAGRPMIECSLCGTWIHLSCAKIKKTNVPDFFYCQKCKELRPEARR
notes: human PHF23, PHD domain, aa 338-393, cloned into pGEX 6p-1; 15N- or 13C,15N-labelled for NMR; also called PHF23PHD; WT PHF23PHD; source: E. coli BL21 (DE3) RIL, purified (glutathione Sepharose 4B, GST cleaved, size exclusion chromatography)

What was measured:
[1] = target: T1, PHF23 PHD finger (PHF23PHD) (Homo sapiens, UniProt Q9BUL5); test: 1H, […] HSQC NMR titration; nonreducing SDS-PAGE; type: binding
T1 construct: PHD domain (aa 338–393)
T1 sequence (Q9BUL5 338-393): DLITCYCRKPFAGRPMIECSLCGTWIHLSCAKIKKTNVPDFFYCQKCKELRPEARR

[2] = target: histone H3K4me3 peptide (Homo sapiens) (UniProt P68431); conditions: cited from earlier work
[3] = target: histone H3K4me3 peptide (Homo sapiens) (UniProt P68431); conditions: cited from earlier work; remark: listed apart in the source
[4] = target: PHD finger of PHF23 (aa 338-393), wild type (human) (UniProt Q9BUL5); test: other fluorescence titration; intrinsic tryptophan fluorescence, 25 °C; 2.0 µM PHF23PHD with increasing peptide, PBS (pH 6.5), 1 mM TCEP, excitation 295 nm; Kd averaged over three experiments
[5] = target: B2; test: NMR titration; 1H,15N HSQC at 298 K; 0.1 mM 15N-labeled PHD in PBS (pH 6.5), 1 mM TCEP, 8% D2O; histone H3 peptide titrated in; Kd from chemical shift changes against peptide concentration; conditions: both partners purified
[6] = target: the molecule itself; test: crystal structure; PHF23PHD crystallized in the presence of H3K4me3 peptide; 0.1 M Tris pH 8.65, 25% tert-butanol, 18 °C; 2.9 Å; the peptide is not in the structure
[7] = target: PHD finger of PHF23 (aa 338-393), L358M cancer-relevant mutant (human, UniProt Q9BUL5 338-393, L358M)
[8] = target: PHD finger of PHF23 (aa 338-393), R345L cancer-relevant mutant (human, UniProt Q9BUL5 338-393, R345L)
[9] = target: B2; test: other fluorescence titration; intrinsic tryptophan fluorescence, 25 °C; 2.0 µM PHF23PHD with increasing peptide, PBS (pH 6.5), 1 mM TCEP, excitation 295 nm; Kd averaged over three experiments; conditions: both partners purified
[10] = target: T2, PHD finger of PHF23 (aa 338-393), R345L cancer-relevant mutant (human, UniProt Q9BUL5 338-393, R345L); test: as above; conditions: both partners purified
T2 construct: human PHF23, PHD domain, aa 338-393, with the cancer-relevant mutation R345L (Cosmic); also called PHF23PHD R345L; source: E. coli BL21 (DE3) RIL, grown and purified as wild-type protein
T2 sequence (looked up): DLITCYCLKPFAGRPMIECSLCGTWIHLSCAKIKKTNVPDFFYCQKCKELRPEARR

[11] = target: T3, PHD finger of PHF23 (aa 338-393), L358M cancer-relevant mutant (human, UniProt Q9BUL5 338-393, L358M); test: as above; conditions: both partners purified
T3 construct: human PHF23, PHD domain, aa 338-393, with the cancer-relevant mutation L358M (Cosmic); also called PHF23PHD L358M; source: E. coli BL21 (DE3) RIL, grown and purified as wild-type protein
T3 sequence (looked up): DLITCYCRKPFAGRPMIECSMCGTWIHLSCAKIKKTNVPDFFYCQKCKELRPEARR

- Kd [4]: 8 µM
Molecule: histone H3K4me2 peptide

- Kd [5]: 1600 µM
B1: histone H3K4me0 peptide (unmodified H3) (peptide)
chain: ARTKQTARKSTG
modifications: unmodified Lys4. Limits 1-12 taken from the H3K4me3 peptide of the same titration series

- Kd [5]: 580 µM
Molecule: ARTK(Me)QTARKSTG [histone H3K4me1 peptide]

- Kd [7]: 2.4 µM
- Kd [8]: 4.3 µM
- Kd [9]: 2 µM
- binding result [10]: binds
- binding result [11]: binds
B3: histone H3K4me3 peptide (aa 1-12 of H3K4me3) (peptide, UniProt P68431 2-13, looked up)
peptide: ART[Lys(Me3)]QTARKSTG
notes: histone H3, residues 1-12, trimethylated on Lys4; source: synthetic peptide (SynPeptide)

Continued, molecule first:

Molecule: CCN(CC)C(=S)SSC(=S)N(CC)CC [DS, disulfiram]
- 1H,15N HSQC NMR titration; nonreducing SDS-PAGE [1]: Gradual addition of AD or DS to PHF23PHD induced small but significant CSPs in the protein, indicative of direct interactions

Molecule: BPTF PHD (from UniProt Q12830)
- Kd [2]: 3 µM

Molecule: KDM5A PHD (from UniProt P29375)
- Kd [3]: 0.9 µM

Molecule: B2
- binding result [6]: binds
